In article PMC2756588:

T1: Pex13, P80667
T1 sequence (P80667 295-386, looked up): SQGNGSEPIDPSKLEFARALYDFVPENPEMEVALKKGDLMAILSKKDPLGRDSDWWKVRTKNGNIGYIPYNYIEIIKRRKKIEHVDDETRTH

T2: Cyk3, Q07533
T2 sequence (Q07533 1-83, looked up): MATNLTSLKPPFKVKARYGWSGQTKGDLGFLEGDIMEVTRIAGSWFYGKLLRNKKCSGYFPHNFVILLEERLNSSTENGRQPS

T3: Bzz1-2, P38822
T3 sequence (P38822 568-633, looked up): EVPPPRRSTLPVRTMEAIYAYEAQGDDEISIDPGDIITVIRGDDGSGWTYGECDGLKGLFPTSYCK

T4: Boi2, P39969
T4 sequence (P39969 32-116, looked up): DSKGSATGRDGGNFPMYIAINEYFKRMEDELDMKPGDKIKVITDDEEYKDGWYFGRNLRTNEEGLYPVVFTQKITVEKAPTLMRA

T5: Lsb4, P32793
T5 sequence (P32793 402-468, looked up): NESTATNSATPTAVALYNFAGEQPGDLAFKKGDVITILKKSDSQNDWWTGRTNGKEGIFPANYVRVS

T6: Nbp2, Q12163
T6 sequence (Q12163 103-180, looked up): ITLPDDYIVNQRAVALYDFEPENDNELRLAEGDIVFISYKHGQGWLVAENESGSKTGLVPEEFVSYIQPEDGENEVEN

T7: Bzz1-1, P38822
T7 sequence (P38822 478-572, looked up): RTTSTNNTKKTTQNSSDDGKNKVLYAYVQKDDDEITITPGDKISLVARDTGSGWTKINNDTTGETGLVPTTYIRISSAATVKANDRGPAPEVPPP

T8: Bbc1, P47068
T8 sequence (P47068 1-78, looked up): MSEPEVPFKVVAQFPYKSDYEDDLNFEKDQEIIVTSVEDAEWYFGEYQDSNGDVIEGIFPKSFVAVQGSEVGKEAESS

T9: Fus1, P11710
T9 sequence (P11710 432-512, looked up): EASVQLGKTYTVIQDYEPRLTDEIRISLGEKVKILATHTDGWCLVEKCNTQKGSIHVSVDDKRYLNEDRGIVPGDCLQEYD

T10: Sla1-2, P32790
T10 sequence (P32790 60-140, looked up): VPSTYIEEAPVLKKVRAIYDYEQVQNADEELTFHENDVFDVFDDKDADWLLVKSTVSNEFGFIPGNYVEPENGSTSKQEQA

T11: Cdc25, P04821
T11 sequence (P04821 50-136, looked up): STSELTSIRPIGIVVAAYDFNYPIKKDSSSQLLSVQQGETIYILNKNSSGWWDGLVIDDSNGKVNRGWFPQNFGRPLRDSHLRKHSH

T12: Pin3, Q06449
T12 sequence (Q06449 53-122, looked up): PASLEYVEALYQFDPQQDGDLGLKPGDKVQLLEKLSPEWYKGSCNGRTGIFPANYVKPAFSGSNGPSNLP

T13: Hse1, P38753
T13 sequence (P38753 208-285, looked up): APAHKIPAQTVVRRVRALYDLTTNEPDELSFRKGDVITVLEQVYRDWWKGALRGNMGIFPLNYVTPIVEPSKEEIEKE

T14: Myo5, Q04439
T14 sequence (Q04439 1072-1160, looked up): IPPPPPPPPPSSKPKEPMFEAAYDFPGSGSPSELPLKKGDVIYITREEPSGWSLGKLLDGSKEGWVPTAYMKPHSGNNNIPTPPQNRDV

T15: Sla1-3, P32790
T15 sequence (P32790 344-424, looked up): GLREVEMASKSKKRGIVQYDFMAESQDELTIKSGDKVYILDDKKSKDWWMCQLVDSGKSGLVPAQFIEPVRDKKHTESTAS

T16: Abp1, P15891
T16 sequence (P15891 535-592, looked up): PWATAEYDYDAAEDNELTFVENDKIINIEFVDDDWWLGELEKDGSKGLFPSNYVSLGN

T17: Lsb1, P53281
T17 sequence (P53281 45-122, looked up): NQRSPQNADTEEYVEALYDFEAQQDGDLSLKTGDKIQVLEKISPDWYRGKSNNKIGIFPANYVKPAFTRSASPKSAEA

T18: Hof1, Q05080
T18 sequence (Q05080 590-669, looked up): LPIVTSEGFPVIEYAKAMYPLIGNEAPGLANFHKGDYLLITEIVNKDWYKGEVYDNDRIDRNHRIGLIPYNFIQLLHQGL

T19: Bud14, P27637
T19 sequence (P27637 247-328, looked up): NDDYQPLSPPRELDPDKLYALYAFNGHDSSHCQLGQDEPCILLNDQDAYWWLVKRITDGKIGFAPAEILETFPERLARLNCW

T20: Lsb3, P43603
T20 sequence (P43603 385-451, looked up): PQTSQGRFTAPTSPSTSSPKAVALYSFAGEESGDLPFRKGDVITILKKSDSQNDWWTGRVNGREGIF

T21: Boi1, P38041
T21 sequence (P38041 1-86, looked up): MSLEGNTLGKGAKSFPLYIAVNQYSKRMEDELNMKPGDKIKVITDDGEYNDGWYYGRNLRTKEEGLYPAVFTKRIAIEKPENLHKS


What was measured:
Test in all cases: SPOT array
Pex13, P80667 = biological target: T1, Pex13, P80667; conditions: median of control spots 1341
Rvs167, P39743 = conditions: median of control spots 2707
Cyk3, Q07533 = biological target: T2, Cyk3, Q07533; conditions: median of control spots 1451
Bzz1-2, P38822 = biological target: T3, Bzz1-2, P38822; conditions: median of control spots 4538
Boi2, P39969 = biological target: T4, Boi2, P39969; conditions: median of control spots 1161
Lsb4, P32793 = biological target: T5, Lsb4, P32793; conditions: median of control spots 397
Bem1-2, P29366 = conditions: median of control spots 4347
Nbp2, Q12163 = biological target: T6, Nbp2, Q12163; conditions: median of control spots 357
Bzz1-1, P38822 = biological target: T7, Bzz1-1, P38822; conditions: median of control spots 4446
Bbc1, P47068 = biological target: T8, Bbc1, P47068; conditions: median of control spots 796
Fus1, P11710 = biological target: T9, Fus1, P11710; conditions: median of control spots 1200
Sla1-2, P32790 = biological target: T10, Sla1-2, P32790; conditions: median of control spots 712
Cdc25, P04821 = biological target: T11, Cdc25, P04821; conditions: median of control spots 969
Pin3, Q06449 = biological target: T12, Pin3, Q06449; conditions: median of control spots 2171
Bem1-1, P29366 = conditions: median of control spots 4282
Hse1, P38753 = biological target: T13, Hse1, P38753; conditions: median of control spots 1727
Myo5, Q04439 = biological target: T14, Myo5, Q04439; conditions: median of control spots 471
Sla1-3, P32790 = biological target: T15, Sla1-3, P32790; conditions: median of control spots 5475
Abp1, P15891 = biological target: T16, Abp1, P15891; conditions: median of control spots 935
Lsb1, P53281 = biological target: T17, Lsb1, P53281; conditions: median of control spots 388
Hof1, Q05080 = biological target: T18, Hof1, Q05080; conditions: median of control spots 4086
Sho1, P40073 = conditions: median of control spots 1148
Bud14, P27637 = biological target: T19, Bud14, P27637; conditions: median of control spots 956
Lsb3, P43603 = biological target: T20, Lsb3, P43603; conditions: median of control spots 406
Boi1, P38041 = biological target: T21, Boi1, P38041; conditions: median of control spots 1162
GST = conditions: median of control spots 978
Myo3, P36006 = conditions: median of control spots 468

Rvs167, P39743, sequence (P39743 419-482): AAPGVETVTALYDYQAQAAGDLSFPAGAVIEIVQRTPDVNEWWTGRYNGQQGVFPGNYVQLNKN
Sho1, P40073, sequence (P40073 287-367): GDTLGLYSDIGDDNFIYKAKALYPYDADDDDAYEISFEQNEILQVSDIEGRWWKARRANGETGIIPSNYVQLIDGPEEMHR
Bem1-2, P29366, sequence (P29366 139-227): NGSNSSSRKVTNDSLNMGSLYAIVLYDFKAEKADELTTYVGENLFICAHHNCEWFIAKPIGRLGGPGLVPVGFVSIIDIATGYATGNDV
Bem1-1, P29366, sequence (P29366 55-141): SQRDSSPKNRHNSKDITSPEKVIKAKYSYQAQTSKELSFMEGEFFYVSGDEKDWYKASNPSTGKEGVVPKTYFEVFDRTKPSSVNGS

Row | Binder | SPOT intensity (Pex13, P80667) | SPOT intensity (Rvs167, P39743) | SPOT intensity (Cyk3, Q07533) | SPOT intensity (Bzz1-2, P38822) | SPOT intensity (Boi2, P39969) | SPOT intensity (Lsb4, P32793) | SPOT intensity (Bem1-2, P29366) | SPOT intensity (Nbp2, Q12163) | SPOT intensity (Bzz1-1, P38822) | SPOT intensity (Bbc1, P47068) | SPOT intensity (Fus1, P11710) | SPOT intensity (Sla1-2, P32790) | SPOT intensity (Cdc25, P04821) | SPOT intensity (Pin3, Q06449) | SPOT intensity (Bem1-1, P29366) | SPOT intensity (Hse1, P38753) | SPOT intensity (Myo5, Q04439) | SPOT intensity (Sla1-3, P32790) | SPOT intensity (Abp1, P15891) | SPOT intensity (Lsb1, P53281) | other results
1 | VAPPPLPNRQLPNLD | 563 | 5720 | 2 | 0 | 0 | 813 | 0 | 0 | 2 | 0 | 0 | 0 | 0 | 5 | 2 | 0 | 59 | 0 | 0 | 1380 | SPOT intensity (Hof1, Q05080): 1330; SPOT intensity (Sho1, P40073): 0; SPOT intensity (Bud14, P27637): 0; SPOT intensity (Lsb3, P43603): 743; SPOT intensity (Boi1, P38041): 0; SPOT intensity (GST): 0; SPOT intensity (Myo3, P36006): 112
2 | ANNQGPPNLPARDKS | 229 | 3320 | 0 | 0 | 0 | 642 | 0 | 0 | 2 | 0 | 0 | 1 | 0 | 0 | 0 | 0 | 0 | 0 | 0 | 461 | SPOT intensity (Hof1, Q05080): 0; SPOT intensity (Sho1, P40073): 0; SPOT intensity (Bud14, P27637): 0; SPOT intensity (Lsb3, P43603): 478; SPOT intensity (Boi1, P38041): 4; SPOT intensity (GST): 1; SPOT intensity (Myo3, P36006): 0
3 | MAMRPIPPLPTESEY | 235 | 1460 | 0 | 2 | 1 | 278 | 0 | 0 | 0 | 0 | 0 | 0 | 0 | 4 | 0 | 0 | 27 | 0 | 6 | 174 | SPOT intensity (Hof1, Q05080): 1560; SPOT intensity (Sho1, P40073): 30; SPOT intensity (Bud14, P27637): 0; SPOT intensity (Lsb3, P43603): 131; SPOT intensity (Boi1, P38041): 0; SPOT intensity (GST): 0; SPOT intensity (Myo3, P36006): 7
4 | TPTSGPPLLPPRNTM | 813 | 2940 | 1 | 0 | 0 | 356 | 0 | 0 | 0 | 0 | 1 | 1 | 0 | 66 | 0 | 4 | 45 | 0 | 25 | 456 | SPOT intensity (Hof1, Q05080): 3; SPOT intensity (Sho1, P40073): 21; SPOT intensity (Bud14, P27637): 0; SPOT intensity (Lsb3, P43603): 345; SPOT intensity (Boi1, P38041): 2; SPOT intensity (GST): 0; SPOT intensity (Myo3, P36006): 97
